Data as given in PMC5971111 (Nature structural & molecular biology, 2018).

Key:
Assay in all cases: […]
[1] = target: T1, Sec15 (S. cerevisiae, UniProt P22224 1-910)
T1 sequence: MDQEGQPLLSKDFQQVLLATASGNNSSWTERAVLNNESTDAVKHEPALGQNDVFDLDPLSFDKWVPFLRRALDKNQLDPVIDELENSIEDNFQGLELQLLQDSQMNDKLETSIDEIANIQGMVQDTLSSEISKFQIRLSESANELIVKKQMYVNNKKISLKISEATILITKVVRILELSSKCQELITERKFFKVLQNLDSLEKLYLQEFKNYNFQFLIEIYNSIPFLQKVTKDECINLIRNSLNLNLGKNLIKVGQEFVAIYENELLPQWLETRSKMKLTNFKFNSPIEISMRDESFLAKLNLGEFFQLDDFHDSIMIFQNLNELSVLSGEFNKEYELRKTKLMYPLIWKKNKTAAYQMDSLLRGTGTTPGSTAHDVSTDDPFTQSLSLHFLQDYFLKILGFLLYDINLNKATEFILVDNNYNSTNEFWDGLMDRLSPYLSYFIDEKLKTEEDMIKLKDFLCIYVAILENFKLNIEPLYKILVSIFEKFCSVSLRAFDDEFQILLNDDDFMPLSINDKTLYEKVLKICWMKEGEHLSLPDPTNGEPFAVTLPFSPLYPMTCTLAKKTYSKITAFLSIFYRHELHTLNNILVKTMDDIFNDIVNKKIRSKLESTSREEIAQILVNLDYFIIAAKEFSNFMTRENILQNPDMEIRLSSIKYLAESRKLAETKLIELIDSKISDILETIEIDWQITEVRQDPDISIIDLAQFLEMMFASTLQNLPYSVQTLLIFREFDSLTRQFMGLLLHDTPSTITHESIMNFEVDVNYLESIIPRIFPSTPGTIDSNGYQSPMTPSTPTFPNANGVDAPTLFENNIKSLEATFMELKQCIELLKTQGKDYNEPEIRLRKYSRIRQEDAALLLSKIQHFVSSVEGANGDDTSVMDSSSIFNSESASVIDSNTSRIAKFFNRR

[2] = target: T2, Sec8 (S. cerevisiae, UniProt P32855 1-1065)
T2 sequence: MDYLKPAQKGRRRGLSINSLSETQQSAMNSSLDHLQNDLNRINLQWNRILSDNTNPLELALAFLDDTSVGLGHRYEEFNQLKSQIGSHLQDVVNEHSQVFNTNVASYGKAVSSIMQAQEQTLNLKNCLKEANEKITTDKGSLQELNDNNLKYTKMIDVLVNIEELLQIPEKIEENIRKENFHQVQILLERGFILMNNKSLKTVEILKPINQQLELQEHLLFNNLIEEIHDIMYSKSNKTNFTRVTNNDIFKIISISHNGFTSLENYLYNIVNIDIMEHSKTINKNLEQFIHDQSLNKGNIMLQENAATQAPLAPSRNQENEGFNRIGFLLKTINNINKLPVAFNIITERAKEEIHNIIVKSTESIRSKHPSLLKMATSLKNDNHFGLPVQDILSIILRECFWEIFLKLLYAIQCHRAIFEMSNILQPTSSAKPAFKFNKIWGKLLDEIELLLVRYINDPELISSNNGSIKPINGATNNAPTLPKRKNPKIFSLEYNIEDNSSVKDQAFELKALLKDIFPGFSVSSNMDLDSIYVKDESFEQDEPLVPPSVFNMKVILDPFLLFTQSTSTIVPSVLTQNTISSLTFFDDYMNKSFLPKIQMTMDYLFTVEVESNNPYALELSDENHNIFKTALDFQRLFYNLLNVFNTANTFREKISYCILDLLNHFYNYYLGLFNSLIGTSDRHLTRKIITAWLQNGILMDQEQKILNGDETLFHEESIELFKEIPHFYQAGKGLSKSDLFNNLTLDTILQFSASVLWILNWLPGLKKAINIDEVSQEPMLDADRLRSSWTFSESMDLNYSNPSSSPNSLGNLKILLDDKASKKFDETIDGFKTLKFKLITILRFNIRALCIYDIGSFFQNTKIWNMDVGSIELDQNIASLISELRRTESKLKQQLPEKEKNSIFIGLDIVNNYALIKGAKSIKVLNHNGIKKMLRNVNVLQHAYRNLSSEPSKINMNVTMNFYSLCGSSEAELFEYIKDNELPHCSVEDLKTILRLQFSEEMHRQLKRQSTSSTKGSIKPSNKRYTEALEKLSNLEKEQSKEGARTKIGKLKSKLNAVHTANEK

[3] = target: T3, Sec10 (S. cerevisiae, UniProt Q06245 1-871)
T3 sequence: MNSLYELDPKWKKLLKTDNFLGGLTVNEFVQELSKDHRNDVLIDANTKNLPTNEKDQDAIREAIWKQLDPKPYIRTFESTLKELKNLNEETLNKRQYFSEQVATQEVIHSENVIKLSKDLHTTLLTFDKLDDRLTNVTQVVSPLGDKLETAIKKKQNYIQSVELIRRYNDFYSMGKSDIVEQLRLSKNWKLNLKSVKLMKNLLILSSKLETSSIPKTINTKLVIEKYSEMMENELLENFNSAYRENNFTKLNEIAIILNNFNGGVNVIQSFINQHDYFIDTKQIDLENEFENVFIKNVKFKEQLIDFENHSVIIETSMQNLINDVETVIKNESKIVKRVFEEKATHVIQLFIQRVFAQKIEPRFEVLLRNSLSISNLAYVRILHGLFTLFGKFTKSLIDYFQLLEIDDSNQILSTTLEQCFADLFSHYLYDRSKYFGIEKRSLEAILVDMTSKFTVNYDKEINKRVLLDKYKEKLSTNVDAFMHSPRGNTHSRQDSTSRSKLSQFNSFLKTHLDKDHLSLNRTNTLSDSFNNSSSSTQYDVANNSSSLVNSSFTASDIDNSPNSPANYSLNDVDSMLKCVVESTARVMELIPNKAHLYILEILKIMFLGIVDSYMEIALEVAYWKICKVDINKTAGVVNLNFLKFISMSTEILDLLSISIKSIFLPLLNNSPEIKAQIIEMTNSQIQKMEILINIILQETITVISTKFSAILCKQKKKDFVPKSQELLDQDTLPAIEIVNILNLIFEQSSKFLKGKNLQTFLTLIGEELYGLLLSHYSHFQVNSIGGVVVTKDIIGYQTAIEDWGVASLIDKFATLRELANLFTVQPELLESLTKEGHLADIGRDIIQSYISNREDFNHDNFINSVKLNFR

Measured: binding result

B1: Exo84 (natural protein)
chain: MVEFSLKKARNNWKHVKKSASSPAKQKTPPSPAKPKQKTKKNPYSDLKDPATSYTLPTINARERSRVATSMQRRLSIHNTNYAPPTLDYSMPLPDMPNMIVPNDNVDSSHNNSSFTTENESVSSKGPSNSLNLSTADLSLNDSSYNKVPARSAMRNTVNPSGSNDPFNNSTSLRKMLANPHFNAKDFVHDKLGNASAITIDKFTSNLTDLSIQVQEEVKLNINKSYNEIMTVNNDLNVAMLELKRVRANINDLNEVLDQCTKIAEKRLQLQDQIDQERQGNFNNVESHSNSPALLPPLKAGQNGNLMRRDRSSVLILEKFWDTELDQLFKNVEGAQKFINSTKGRHILMNSANWMELNTTTGKPLQMVQIFILNDLVLIADKSRDKQNDFIVSQCYPLKDVTVTQEEFSTKRLLFKFSNSNSSLYECRDADECSRLLDVIRKAKDDLCDIFHVEEENSKRIRESFRYLQSTQQTPGRENNRSPNKNKRRSMGGSITPGRNVTGAMDQYLLQNLTLSMHSRPRSRDMSSTAQRLKFLDEGVEEIDIELARLRFESAVETLLDIESQLEDLSERISDEELMLLNLISLKIEQRREAISSKLSQSILSSNEIVHLKSGTENMIKLGLPEQALDLFLQNRSNFIQDLILQIGSVDNPTNYLTQLAVIRFQTIKKTVEDFQDIFKELGAKISSILVDWCSDEVDNHFKLIDKQLLNDEMLSPGSIKSSRKQIDGLKAVGLDFVYKLDEFIKKNSDKIR
binds: all assays above
